Results taken from FireProtDB.

Details: Bos taurus; pH 8; 30 °C; GdnHCl; CD; borate 10 mM

Chain of Phospholipase A2 wild type, P00593 (P00593 whole entry): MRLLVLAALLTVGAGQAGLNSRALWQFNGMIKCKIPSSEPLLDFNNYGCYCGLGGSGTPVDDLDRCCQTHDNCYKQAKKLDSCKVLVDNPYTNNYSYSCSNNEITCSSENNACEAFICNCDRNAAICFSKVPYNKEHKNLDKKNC

Phospholipase A2 wild type, P00593
denaturant m value: 1.47 kcal/mol/M
denaturant midpoint (higher = more stable): 6.9 M
unfolding free energy: 9.5 kcal/mol
